Laboratory results taken from paper PMC10778422, “PI3Kδ Inhibition Potentiates Glucocorticoids in B-lymphoblastic Leukemia by Decreasing Receptor Phosphorylation and Enhancing Gene Regulation”.

Target: GR-AF1-DBD unmodified (Homo sapiens, UniProt P04150 27-506)
Assay: EMSA; reference; Kd plotted in figure only; 5 mM Mg2+; EMSA: 20 mM Tris-HCl pH 8.0, 150 mM KCl, 10% glycerol, 5 mM MgCl2, 1 mM DTT, 1 mM EDTA, 200 ng/uL BSA, 40 ng/uL salmon sperm DNA; dsDNA diluted to 10 nM in this buffer; Hill fit; temperature not given
Conditions: protein: recombinant; tags: His6 (pET28a); chain copies: 2; label: Cy5; blunt

Chain of GR-AF1-DBD unmodified (P04150 27-506): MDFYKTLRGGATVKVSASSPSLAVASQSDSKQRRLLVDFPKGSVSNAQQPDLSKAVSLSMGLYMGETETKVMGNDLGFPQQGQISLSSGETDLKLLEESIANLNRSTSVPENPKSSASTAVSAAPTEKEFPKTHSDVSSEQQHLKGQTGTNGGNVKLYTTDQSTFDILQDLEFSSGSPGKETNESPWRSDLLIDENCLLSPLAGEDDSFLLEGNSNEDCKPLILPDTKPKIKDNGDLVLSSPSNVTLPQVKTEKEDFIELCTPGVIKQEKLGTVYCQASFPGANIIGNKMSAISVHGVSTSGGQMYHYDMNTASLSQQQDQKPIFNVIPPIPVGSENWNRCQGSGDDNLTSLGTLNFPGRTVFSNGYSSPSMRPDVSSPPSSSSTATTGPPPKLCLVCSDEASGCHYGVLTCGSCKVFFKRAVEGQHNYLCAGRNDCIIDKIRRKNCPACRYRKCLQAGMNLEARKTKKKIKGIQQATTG

B1: consensus GR site (dsDNA)
DNA 1: GTACGGAACATCGTGTACTGTAC
DNA 2: GTACAGTACACGATGTTCCGTAC
Does B1 bind?
Result: binds
